Laboratory results as given in paper PMC8446797 (The Journal of Biological Chemistry, 2021).
No end group written: not given here. 5Flu = C-terminal fluorescein

Assays:
CRIP1a = target: T1, CRIP1a (Rattus norvegicus, UniProt Q5M7A7); experiment: Fluorescence polarization of fluorescein-labeled peptides binding to CRIP1a; conditions: 20 nM peptide, CRIP1a 0–250 μM, 30 min, room temperature, 25 mM Hepes pH 7.5, 100 mM NaCl, 5 mM MgCl2, 0.1 mM EDTA, 2 mM TCEP, 10% glycerol, λex 470 nm, λem 530 nm, biological quadruplicates, three separate days
T1 sequence (Q5M7A7 1-164): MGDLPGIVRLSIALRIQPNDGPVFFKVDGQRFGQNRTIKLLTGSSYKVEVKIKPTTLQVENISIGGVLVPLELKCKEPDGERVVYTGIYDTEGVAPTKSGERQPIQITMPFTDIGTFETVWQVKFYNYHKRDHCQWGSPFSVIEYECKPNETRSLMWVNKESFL

[1] = target: N-terminally myristoylated 9-mer peptide mimicking the Gαi N terminus (Myr-…-5Flu); experiment: fluorescence polarisation

Row | binding to CRIP1a (in words) (CRIP1a) | Kd [1] | Substance
1 | unable to readily bind |  | nonmyristoylated Gα peptide: corresponding nonmyristoylated peptide used as the control (GCTLSAEDK-5Flu)
2 | unable to readily bind |  | Myr-GTASSLVSPK-5Flu [Myr-NHPH3 peptide]
3 |  | 21.2 µM | Cannabinoid receptor interacting protein 1a (from UniProt Q5M7A7 1-164) (natural protein)
4 | inability to bind |  | 5Flu-SQGKSSC(Farn)-OMe [Rheb-Farn peptide]
